This note sets out measurements from article PMC10997478.

The pKd is the Kd on a negative log10 scale, so that one unit is a factor of ten. A high value points to a small Kd.

pKd: −log10 of the molar value.

Experiment [1] has as its target NEDD8-Fluor568CRL2FEM1C (human) (UniProt Q15843).
For experiment [2], the target named is neddylated Fluor568CRL2VHL (human) (UniProt Q15843).
A further experiment concerns the target T1, FEM1C (human) (UniProt Q96JP0).
T1 sequence: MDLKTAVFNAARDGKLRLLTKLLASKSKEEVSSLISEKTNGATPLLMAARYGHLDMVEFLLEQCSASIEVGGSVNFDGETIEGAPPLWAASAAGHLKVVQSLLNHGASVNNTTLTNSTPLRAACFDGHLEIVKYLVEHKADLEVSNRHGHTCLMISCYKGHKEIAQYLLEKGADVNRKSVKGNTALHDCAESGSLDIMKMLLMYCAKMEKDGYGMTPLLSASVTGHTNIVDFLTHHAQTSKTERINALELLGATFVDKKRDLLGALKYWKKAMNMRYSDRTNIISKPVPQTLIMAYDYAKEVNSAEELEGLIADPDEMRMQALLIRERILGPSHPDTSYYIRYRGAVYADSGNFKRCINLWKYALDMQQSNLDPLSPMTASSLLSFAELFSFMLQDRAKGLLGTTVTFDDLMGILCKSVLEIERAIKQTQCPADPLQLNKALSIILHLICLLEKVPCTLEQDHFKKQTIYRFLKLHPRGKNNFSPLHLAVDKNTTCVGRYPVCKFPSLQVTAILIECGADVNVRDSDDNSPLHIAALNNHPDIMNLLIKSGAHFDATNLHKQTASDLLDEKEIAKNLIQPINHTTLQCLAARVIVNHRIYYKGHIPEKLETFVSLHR

For experiment [3], the target named is NEDD8-Fluor568CUL2-RBX1 (human) (UniProt Q15843). The experiment in a line: FRET or BRET; Fluor647UBE2R2C93K titrated into 25 or 50 nM NEDD8-Fluor568CUL2-RBX1 in solution; 30 mM Tris pH 7.5, 100 mM NaCl, BSA; excitation 575 nm; one-site binding fit.
For experiment [4] the target is unchanged. The experiment in a line: FRET or BRET; Fluor647UBE2R2C93K titrated into 25 or 50 nM NEDD8-Fluor568CUL2-RBX1 in solution; 30 mM Tris pH 7.5, final 50 mM NaCl, BSA; excitation 575 nm; one-site binding fit.
Experiment [5] concerns the target neddylated ^Fluor568CRL2^FEM1C (human) (UniProt Q13617). Description: other fluorescence titration; environmental perturbation of Alexa Fluor 568 on neddylated ^Fluor568CRL2^FEM1C (25 or 50 nM); unlabeled UBE2R2 titrated; reaction buffer at ionic strength of 50 mM; one-site model.
Experiment [6] has as its target NEDD8-Fluor568CRL2FEM1C (human) (UniProt Q15843). The experiment in a line: other fluorescence titration; environmental perturbation of the Fluor568 dye: unlabelled UBE2R2 titrated into 25 or 50 nM NEDD8-Fluor568CRL2FEM1C; 30 mM Tris pH 7.5, 100 mM NaCl, BSA; one-site binding fit.
The target is the same in experiment [7]. Description: other fluorescence titration; environmental perturbation of the Fluor568 dye: unlabelled UBE2R2 or UBE2R2C93K-ubiquitin titrated into 25 or 50 nM NEDD8-Fluor568CRL2FEM1C; 30 mM Tris pH 7.5, final 50 mM NaCl, BSA; one-site binding fit.
The target is the same in experiment [8]. The experiment in a line: other fluorescence titration.

Chain of UBE2D3 (P61077 whole entry): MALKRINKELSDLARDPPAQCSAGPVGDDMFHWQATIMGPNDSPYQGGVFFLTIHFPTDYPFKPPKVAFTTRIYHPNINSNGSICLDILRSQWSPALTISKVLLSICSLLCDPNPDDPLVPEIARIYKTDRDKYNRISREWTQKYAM
Chain of ARIH1 (Q9Y4X5 whole entry): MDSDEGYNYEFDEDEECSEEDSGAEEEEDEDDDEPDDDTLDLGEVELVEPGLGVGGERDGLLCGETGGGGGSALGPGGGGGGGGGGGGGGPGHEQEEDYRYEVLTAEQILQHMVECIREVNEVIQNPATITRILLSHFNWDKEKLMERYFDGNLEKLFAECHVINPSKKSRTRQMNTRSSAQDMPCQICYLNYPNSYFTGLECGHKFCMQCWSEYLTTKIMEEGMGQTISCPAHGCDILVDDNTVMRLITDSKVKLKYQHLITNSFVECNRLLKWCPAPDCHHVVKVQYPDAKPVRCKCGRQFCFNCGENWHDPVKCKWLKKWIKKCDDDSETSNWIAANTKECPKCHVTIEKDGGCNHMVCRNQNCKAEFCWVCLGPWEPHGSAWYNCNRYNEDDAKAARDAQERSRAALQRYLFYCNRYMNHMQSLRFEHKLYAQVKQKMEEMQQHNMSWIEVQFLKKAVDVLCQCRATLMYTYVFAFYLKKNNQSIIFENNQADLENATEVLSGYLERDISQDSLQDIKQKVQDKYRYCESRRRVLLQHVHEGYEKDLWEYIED
Chain of UBE2G1 (P62253 whole entry): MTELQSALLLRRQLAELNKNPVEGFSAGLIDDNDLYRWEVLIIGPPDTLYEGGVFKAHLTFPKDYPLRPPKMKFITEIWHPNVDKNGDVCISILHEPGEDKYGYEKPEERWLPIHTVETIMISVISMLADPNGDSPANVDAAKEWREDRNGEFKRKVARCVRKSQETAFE

With “ARIH1 (from UniProt Q9Y4X5 1-557) (enzyme)”, the Table S1: Km of the UCE for the CRL complex; ubiquitin priming of Sil1 peptide, ARIH1 (with UBE2L3, K0 ubiquitin) with unlabelled neddylated CRL2FEM1C, Michaelis-Menten fit in experiment [1] worked out at 0.143 µM. The substance further registered a Table S1: Km of the UCE for the CRL complex; ubiquitin priming of Hif1α peptide, ARIH1 (with UBE2L3, K0 ubiquitin) with unlabelled neddylated CRL2VHL, Michaelis-Menten fit in experiment [2] of 0.151 µM.
“E88R UBE2R2 (from UniProt Q712K3 1-238) (enzyme)”: the catalytic efficiency of Sil1 peptide priming with neddylated CRL2^FEM1C, against wild type with FEM1C (human) came to 300 fold.
In the case of “Fluor647UBE2R2C93K (from UniProt Q712K3 1-238) (enzyme)”, the results for the pKd in [3] and in experiment [4] were 5.94 and 6.56, respectively.
In the case of “UBE2D3 (from UniProt P61077 1-147) (enzyme)”, the Table S1: Km of the UCE for the CRL complex; ubiquitin priming of Sil1 peptide, UBE2D3 (K0 ubiquitin) with unlabelled neddylated CRL2FEM1C, Michaelis-Menten fit in experiment [1] was found to be 0.916 µM. For the same substance, in experiment [2], the Table S1: Km of the UCE for the CRL complex; ubiquitin priming of Hif1α peptide, UBE2D3 (K0 ubiquitin) with unlabelled neddylated CRL2VHL, Michaelis-Menten fit is 6.24 µM.
The substance “UBE2G1 (from UniProt P62253 1-170) (enzyme)” yielded a Table S1: Km of the UCE for the CRL complex; ubiquitin priming of Sil1 peptide, UBE2G1 (K0 ubiquitin) with unlabelled neddylated CRL2FEM1C, Michaelis-Menten fit in experiment [1] of 1.14 µM.
In turn, “UBE2R2 (wild type, unlabeled) (from UniProt Q712K3 1-238) (enzyme)” yielded a fold decrease of Kd against neddylated CUL2-RBX1 alone in experiment [5] of 7 fold.
For the substance “UBE2R2 (wild-type, unlabeled) (from UniProt Q712K3 1-238) (enzyme)”, the figures for the pKd in experiment [6] and in experiment [7] were 6.81 and 7.36, respectively.
“UBE2R2C93K-ubiquitin (from UniProt Q712K3 1-238; P0CG48 1-76) (complex)” gave a pKd in experiment [8] of 7.30.
